# Laboratory results taken from the RNAGym collection of RNA variant scans (doi:10.1093/molbev/msab373).
# B1: Azoarcus group I ribozyme (parent)
# chain: GUGCCUUGCGCCGGGAAACCACGCAAGGGAUGGUGUCAAAUUCGGCGAAACCUAAGCGCCCGCCCGGGCGUAUGGCAACGCCGAGCCAAGCUUCGGCGCCUGCGCCGAUGAAGGUGUAGAGACUAGACGGCACCCACCUAAGGCAAACGCUAUGGUGAAGGCAUAGUCCAGGGAGUGGCGAAAGUCACACAAACCGG
# Variants of: B1
# Test: reverse-splicing fitness (ratio to wild type); higher = more active; in vitro selection; Mg2+ level not given
# Procedure, shortened: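 An in vitro group I ribozyme library with randomized positions was T7-transcribed and gel-purified. In triplicate, 10 pmol RNA in EPPS pH 7.5 was reacted with 50 pmoles of a 30-nt RNA substrate for 1 h at 37 °C across several added MgCl2 levels (1–48 mM), then stopped with EDTA. Products were reverse transcribed from a substrate-complementary primer, PCR-amplified and sequenced (HiSeq 4000). Fitness is a variant's read proportion after selection over that before, normalised to wild type.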
row,Variant,reverse-splicing fitness
1,C82U A111G A120G A145G C169U U176G,0.00414
2,C82U A111G A120G A145G C169U U176C,0.0164
3,C82U A111G A120G C150A C169U U176A,0.0248
4,C82U A111G A120G C150A C169U U176G,0.00765
5,C82U A111G A120G C150A C169U U176C,0.0157
6,C82U A111G A120C A145U C169G U176C,0.00823
7,C82U A111G A120C A145U C169G U176G,0.00375
8,C82U A111G A120C A145U C169G U176A,0.00935
9,C82U A111G A120G A145G C150A C169U U176C,0.0156
10,C82U A111G A120G A145G C150A C169U U176A,0.0215
11,C82U A111G A120G A145G C150A C169U U176G,0.00573
12,C82U A111G A120G A145G C150G C169G U176A,0.00945
13,C82U A111G A120G A145G C150G C169G U176C,0.011
14,C82U A111G A120G A145G C150G C169G U176G,0.00529
15,C82U A111G A120G A145C C150G C169U,0.00741
16,C82U A111G A120G A145C C150G C169G,0.00713
17,C82U A111G A120G A145C C150G C169A,0.00854
18,C82U A111G A120C C150A U176G,0.00554
19,C82U A111G A120C C150A U176A,0.0127
20,C82U A111G A120C C150A U176C,0.0187
21,C82U A111G A120G A145U C150A C169U,0.00646

row,Variant,reverse-splicing fitness
1,C82U A111G A120G A145U C150A C169A,0.00822
2,C82U A111G A120G A145U C150A C169G,0.00754
3,C82U A111G A120G A145C C150U C169G,0.00844
4,C82U A111G A120G A145C C150U C169U,0.00745
5,C82U A111G A120G A145C C150U C169A,0.0078
6,C82U A111G A120G A145G,0.0164
7,C82U A111G A120G A145U,0.0174
8,C82U A111G A120G A145C,0.0135
9,C82U A111G A120G A145U U176G,0.00443
10,C82U A111G A120G A145U U176A,0.0116
11,C82U A111G A120G A145U U176C,0.0141
12,C82U A111G A120G C150G C169U U176G,0.00601
13,C82U A111G A120G C150G C169U U176A,0.0121
14,C82U A111G A120G C150G C169U U176C,0.0124
15,C82U A111G A120C A145U C169A,0.00556
16,C82U A111G A120C A145U C169G,0.00646
17,C82U A111G A120C A145U C169U,0.0104
18,C82U A111G A120C C150A C169U U176C,0.0177
19,C82U A111G A120C C150A C169U U176G,0.00561
20,C82U A111G A120C C150A C169U U176A,0.017
21,C82U A111G A120G A145U C169A,0.00841

row,Variant,reverse-splicing fitness
1,C82U A111G A120G A145U C169G,0.0113
2,C82U A111G A120G A145U C169U,0.0103
3,C82U A111G A120G A145C C150A C169U,0.00634
4,C82U A111G A120G A145C C150A C169G,0.00737
5,C82U A111G A120G A145C C150A C169A,0.00777
6,C82U A111G A120G A145C C150A C169G U176C,0.015
7,C82U A111G A120G A145C C150A C169G U176A,0.023
8,C82U A111G A120G A145C C150A C169G U176G,0.00465
9,C82U A111G A120G A145U C169U U176C,0.0133
10,C82U A111G A120G A145U C169U U176A,0.0208
11,C82U A111G A120G A145U C169U U176G,0.00342
12,C82U A111G A120G A145U C150U C169A,0.00925
13,C82U A111G A120G A145U C150U C169G,0.0107
14,C82U A111G A120G A145U C150U C169U,0.00963
15,C82U A111G A120G A145G C150U C169G U176A,0.014
16,C82U A111G A120G A145G C150U C169G U176G,0.00444
17,C82U A111G A120G A145G C150U C169G U176C,0.0168
18,C82U A111G A120G,0.0173
19,C82U A111G A120G A145G C150G,0.00721
20,C82U A111G A120G A145G C150U,0.0132
21,C82U A111G A120G A145G C150A,0.00878

row,Variant,reverse-splicing fitness
1,C82U A111G A120G A145U C150U U176G,0.00411
2,C82U A111G A120G A145U C150U U176C,0.0124
3,C82U A111G A120G A145U C150U U176A,0.00942
4,C82U A111G A120G A145C C169G,0.0123
5,C82U A111G A120G A145C C169U,0.00954
6,C82U A111G A120G A145C C169A,0.00792
7,C82U A111G A120G A145G C169U,0.011
8,C82U A111G A120G A145G C169A,0.0117
9,C82U A111G A120G A145G C169G,0.0129
10,C82U A111G A120G C150G U176G,0.0029
11,C82U A111G A120G C150G U176A,0.00527
12,C82U A111G A120G C150G U176C,0.00816
13,C82U A111G A120C A145U C150U U176C,0.0223
14,C82U A111G A120C A145U C150U U176A,0.0147
15,C82U A111G A120C A145U C150U U176G,0.00565
16,C82U A111G A120G C150G C169A U176C,0.0101
17,C82U A111G A120G C150G C169A U176A,0.00933
18,C82U A111G A120G C150G C169A U176G,0.00628
19,C82U A111G A120G A145U C150A C169A U176C,0.00962
20,C82U A111G A120G A145U C150A C169A U176G,0.00458
21,C82U A111G A120G A145U C150A C169A U176A,0.013
